The values that follow come from publication PMC11154709, “4S-fluorination of ProB29 in insulin lispro slows fibril formation” (The Journal of Biological Chemistry, 2024).

“Also recorded” adds a separate entry of the source.

A short description of data set [1]: Far-UV circular dichroism (secondary structure). Type of data set: physicochemical. Conditions: for Ellipticity ratio (208/222 nm): 60 µM insulin or lispro variant, 100 mM phosphate, pH 8.0. The method, then:
Figure 2 Biological activity and CD spectroscopy of lispro variants.A, lispros were injected subcutaneously into diabetic mice, and blood glucose was measured over time after injection. The data presented here represent the mean ± SD of 3 to 6 biological replicates. B–E, far-UV circular dichroism spectra (60 μM lispro in […] phosphate buffer, pH 8.0). […] 4R-F, 4R-fluoroproline; 4S-F, 4S-fluoroproline.
The secondary structure of each insulin lispro variant was probed by circular dichroism spectroscopy. […] All lispro samples were further analyzed by analytical ultracentrifugation (Fig. S3). To determine the dissociation constant of each variant, we fit the data to a reversible monomer-dimer equilibrium ([29]). […]
Circular dichroism spectroscopy:
Equilibrium measurements: The circular dichroism spectra of insulin or lispro samples (60 µM in
100 mM sodium phosphate, pH 8.0) were measured at 25°C in 1 mm quartz cuvettes using a step
size of 0.5 nm and averaging time of 1 s on an Aviv Model 430 Circular Dichroism
Spectrophotom eter. A reference buffer spectrum was subtracted from each sample spectrum. […]
Analytical ultracentrifugation: […]
(Circular dichroism is the unequal absorption of left and right circularly polarised light.)

Data set [2] in a line: Fibrillation (thioflavin T), shaking at 37 °C. It counts as physicochemical. Conditions: 60 μM in 100 mM sodium phosphate, pH 8.0, 37 °C; for Fibrillation lag time: shaking 960 rpm, 1 μM ThT (444/485 nm), lag time = x-intercept, two HPLC fractions, each in triplicate or quadruplicate, two days; for fibrillation: vigorous shaking, ThT. On the procedure:
Each insulin lispro variant was subjected to continuous, vigorous shaking at 37 °C to assess its stability against physical denaturation; fibrillation was monitored with the dye thioflavin T, (Fig. 4A).
Figure 4 Fibrillation of lispro variants.A, lispro variants (60 μM in 100 mM phosphate buffer, pH 8.0) were incubated at 37 °C with vigorous shaking; fibril formation was monitored by ThT fluorescence. Fibrillation runs were performed on two separate HPLC fractions, each in triplicate or quadruplicate, on two separate days. B–E, TEM images of lispro (B), KP-4R-F (C), KP-4S-F (D), and KP-44-diF (E) aggregates. F, ANS emission spectra of lispro variants (1 μM lispro variant labeled with 5 μM ANS in 100 mM phosphate buffer, pH 8.0). The data presented here indicate the mean ± SD for each variant from measurements of three separate HPLC fractions. 44-diF, 4,4-difluoroproline; 4R-F, 4R-fluoroproline; 4S-F, 4S-fluoroproline; ThT, thioflavin T.
Lispro samples (60 μM in 100 mM sodium phosphate buffer, pH 8.0) were centrifuged (22,000g, 1 h, 4 °C); 1 μM thioflavin T was then added. Each lispro variant was shaken continuously in a 96-well, black, clear bottom plate at 37 °C, and fluorescence (444 nm excitation, 485 nm emission) was monitored over time. Fibrillation runs were performed on two separate HPLC fractions, each in triplicate or quadruplicate, on two separate days. The growth phase of each replicate was fit to a linear function; lag times were reported as the x-intercept. […]
Lispro samples (60 µM in 100 mM sodium phosphate, pH 8.0) were centrifuged at 22,000 g for 1 h at 4°C, before 1 µM thioflavin T (ThT) was added. Each lispro (200 µL) was added to a 96 -well, black, clear bottom plate (Greiner Bio -One) and sealed. Samples were shaken continuously at 960 rpm on a Varioskan multimode plate reader at 37°C, and fluorescence readings were recorded every 15 min (444 nm excitation, 485 nm em ission). Fibrillation runs were performed on at least two separate HPLC fractions, each in triplicate or quadruplicate, and on two different days. The growth phase of each fibrillation replicate was fit to a linear function; f ibrillation lag times were reported as the x-intercept of this fit. Fibril samples were stored at 4°C until analysis by transmission electron microscopy (TEM).
Transmission electron microscopy: […]

Data set [3] has as its system zinc- and resorcinol-bound hexamer. Kind of data set: Hexamer dissociation kinetics by CD after dilution. It counts as physicochemical. Particulars: 250 μM ZnCl2, 25 mM resorcinol; for Hexamer dissociation t1/2: 600 μM insulin or lispro, 25 mM tris pH 8.0, 150-fold dilution, 25 °C, ellipticity at 222 nm over 120 s, at least two separate HPLC fractions, different days. The method, then:
We measured the half-life (t1/2) for dissociation of the hexamer form of each lispro variant by monitoring the change in negative ellipticity at 222 nm over time after dilution (Figs. 3A, S4, and S5). Insulin and lispro variants were formulated to mimic the pharmaceutical formulation (600 μM insulin, 25 mM resorcinol, 250 μM ZnCl2); resorcinol was used as the phenolic ligand to slow dissociation ([30]). […] Monitoring dissociation processes faster than that of lispro is limited by the mixing time of this experiment, though comparisons to human insulin can still be made.
Samples were dialyzed overnight against 28.6 mM tris buffer, pH 8.0, then formulated as 600 μM insulin or lispro, 250 μM ZnCl2, 25 mM resorcinol, 25 mM tris, pH 8.0. A 20 μl aliquot of the formulation solution was injected into a stirred buffer solution containing 2.98 ml of 25 mM tris, pH 8.0 (150-fold dilution) at 25 °C. Ellipticity was monitored over 120 s at 222 nm. A typical run led to a rapid drop in CD signal as mixing occurred (∼5 s), then a gradual rise to an ellipticity representative of an insulin monomer. Data preceding the timepoint with the greatest negative ellipticity represented the mixing time and were omitted from further analysis. […] Dissociation data were fit to a mono-exponential function using Scipy (Python). The data presented here are from at least two separate HPLC fractions, measured on different days. […]
Circular dichroism spectroscopy: […]
Kinetic measurements: Insulin or lispro samples in 100 mM sodium phosphate buffer pH 8.0 were dialyzed overnight against 28.6 mM tris buffer, pH 8.0 (Slide -A-Lyzer dialysis cassettes, 3.5 kDa MWCO, ThermoFisher). Samples were formulated as follows: 600 µM lispro, 250 µM ZnCl 2, 25 mM resorcinol, 25 mM tris buffer, pH 8. A 20 µL volume of the insulin formulation was injected into a stirred buffer solution containing 2.98 mL of 25 mM tris, pH 8.0 in a 10 mm quartz cuvette (150-fold dilution). Ellipticity was m onitored at 222 nm over 120 s (1 s kinetic interval, 0.5 s time constant) at 25°C. A typical run led to a rapid drop in CD signal as mixing occurred (~5 s), then a gradual rise to an equilibrium ellipticity representative of an insulin monomer. Data preceding […]
omitted from further analysis. Runs were discarded if the maximum change in mean residue […]
remaining data were fit to a mono -exponential function using Scipy (Python); data presented here are from at least two separate HPLC fractions, measured on two different days.
An equilibrium spectrum for each protein was obtained after dilution; all spectra were indicative of an insulin monomer (Figure S3). The CD spectrum of lispro under pre -dilution formulation conditions was obtained using a 0.1 mm quartz cuvette. […]

The conditions of data set [4]: cited from earlier work. From the text: Removal of the constrained pyrrolidine ring of proline at position B28 grants additional conformational degrees of freedom and removes hydrophobic packing interactions at the dimer interface. […] However, the standard mutagenesis approach employed in the discovery of insulin lispro ([7]) (and other FDA-app ...

In the case of “KP-4R-F: insulin lispro with ProB29 replaced by 4R-fluoroproline”, the “Ellipticity ratio (208/222 nm)” value in data set [1] (25 °C) was 1.62 ± 0.06. Also, in data set [2], the Fibrillation lag time is 10.3 ± 2.4 h and the “fibrillation” value was “did not significantly change the fibrillation lag time”. The “Hexamer dissociation t1/2” value in data set [3] is reported as 10.2 ± 1.6 s.
The corresponding values for “KP-4S-F: insulin lispro with ProB29 replaced by 4S-fluoroproline” are 1.59 ± 0.06, 17.9 ± 0.8 h, “stabilized against fibril formation; also recorded: extended lag time to fibril formation” and 11.2 ± 3.3 s.
For the substance “KP-44-diF: insulin lispro with ProB29 replaced by 4,4-difluoroproline”, the “Ellipticity ratio (208/222 nm)” value in data set [1] (25 °C) worked out at 1.61 ± 0.05. In addition, in data set [2], the Fibrillation lag time is on record as 9.0 ± 1.3 h and the “fibrillation” value is on record as “did not significantly change the fibrillation lag time”. Also, the “Hexamer dissociation t1/2” value in data set [3] stood at 9.9 ± 2.9 s.
In the case of “insulin lispro: fast-acting insulin with inversion of the residues ProB28 and LysB29; Humalog, Eli Lilly [reference compound]”, the “Ellipticity ratio (208/222 nm)” value in data set [1] (25 °C) is recorded as 1.63 ± 0.07. For the same substance, the “oligomeric state at 60 μM” value in data set [1] (60 μM, statement in discussion of CD spectra) was “monomeric”. Moreover, the “CD spectrum” value in data set [1] (far-UV CD, 60 μM lispro in 10 mM phosphate buffer, pH 8.0 (Fig. 2; SI: 100 mM sodium phosphate), 25 °C) is “increased negative ellipticity at 208 nm and decreased negative ellipticity at 222 nm”. Besides, the Fibrillation lag time in data set [2] is 10.9 ± 2.2 h. The “hexamer dissociation” value in data set [3] (600 μM protein, 150-fold dilution, pH 8.0, 25 °C, CD 222 nm) is recorded as “dissociated significantly more rapidly than human insulin”. Also, in data set [4], the “absorption” value is given as “accelerate absorption”.
